# B1: Rab-3A-interacting protein (Rattus norvegicus (Rat)), Q62739 (parent)
# chain: MANDPLEGFHEVNLASPTSPDLLGVCDPGTQEQTTSPSVIYRPHPSTLCSATIQANALNLSDLPTQPVYSSPRHLNCAEISNISIHVPEPASSVASEVAAGLTRFTSRKDSCNAEREFLQGATVTEASAGNDDIFGLSTDSLSRLRSPSVLEVREKGYERLKEELAKAQRELKLKDEECERLSKVRDQLGQELEELTASLFEEAHKMVREANVKQATAEKQLKEAQGKIDVLQAEVAALKTLVLSSSPTSPTQEPLAAGKTPFKRGHTRNKSTSSAMSGSHQDFSAIQPIVKDCREADLSLYNEFRSWKDEPTMDRTCPFLDKIYQEDIFPCLTFAKSELASAVLEAVENNTLSIEPVGLQPIRFVKASAVECGGPKKCALTGQSKPCKHRIKLGDSSSYYYISPVCRYRITSVCNFFTYIRYIQQGLVKQQDVDQMFWEVMQLRKEMSLAKLGYFKEEL
# B2: Rab-3A-interacting protein (Rattus norvegicus (Rat)), Q62739 (parent)
# chain: B1 chain
# partner: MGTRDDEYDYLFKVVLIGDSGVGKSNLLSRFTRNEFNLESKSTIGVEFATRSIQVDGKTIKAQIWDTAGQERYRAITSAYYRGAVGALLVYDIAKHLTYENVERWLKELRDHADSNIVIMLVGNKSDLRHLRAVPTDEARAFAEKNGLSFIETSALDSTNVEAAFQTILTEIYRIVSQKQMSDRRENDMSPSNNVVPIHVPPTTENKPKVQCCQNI
# Variants of: B1
# Conditions: with exoc6_mouse Exoc6, Q8R313
# Sequence of exoc6_mouse Exoc6, Q8R313 (Q8R313 whole entry): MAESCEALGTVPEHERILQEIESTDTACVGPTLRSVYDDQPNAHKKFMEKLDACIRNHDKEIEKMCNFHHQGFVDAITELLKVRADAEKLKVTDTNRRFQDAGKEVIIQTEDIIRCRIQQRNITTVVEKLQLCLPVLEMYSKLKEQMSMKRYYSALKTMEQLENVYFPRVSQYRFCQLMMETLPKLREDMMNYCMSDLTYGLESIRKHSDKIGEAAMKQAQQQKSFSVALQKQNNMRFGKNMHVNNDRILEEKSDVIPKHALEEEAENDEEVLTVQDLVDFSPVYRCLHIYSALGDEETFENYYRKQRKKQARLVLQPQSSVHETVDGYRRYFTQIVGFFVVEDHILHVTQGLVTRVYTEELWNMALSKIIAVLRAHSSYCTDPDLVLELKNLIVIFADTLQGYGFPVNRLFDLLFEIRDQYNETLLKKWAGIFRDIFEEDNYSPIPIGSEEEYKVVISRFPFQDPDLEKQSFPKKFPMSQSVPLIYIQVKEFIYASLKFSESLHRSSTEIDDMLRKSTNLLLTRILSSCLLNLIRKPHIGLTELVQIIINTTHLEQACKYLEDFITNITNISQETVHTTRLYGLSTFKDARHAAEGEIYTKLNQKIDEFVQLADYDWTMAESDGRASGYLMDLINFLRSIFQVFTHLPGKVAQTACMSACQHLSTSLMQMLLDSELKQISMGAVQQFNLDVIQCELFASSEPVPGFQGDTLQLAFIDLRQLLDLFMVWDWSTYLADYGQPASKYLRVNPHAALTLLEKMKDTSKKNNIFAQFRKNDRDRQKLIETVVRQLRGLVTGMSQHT
row,effect of a mutation on the interaction,Variant
1,disrupting interaction,S272A

# Variants of: B1
# Conditions: with exoc6_mouse Exoc6, Q8R313
# Remark: another data set of the same source
row,effect of a mutation on the interaction,Variant
1,increasing interaction,I329S

# Variants of: B2
# Conditions: with rb11a_mouse Rab11a
row,effect of a mutation on the interaction,Variant
1,disrupting interaction,I329S

# Variants of: B2
# Conditions: with rb11a_mouse Rab11a
# Remark: another data set of the same source
row,effect of a mutation on the interaction,Variant
1,increasing interaction,S272A

# Reference: IntAct's records for PubMed 23435566
